{"source": "paper PMC3113405", "about": "(Nature structural & molecular biology, 2010)", "binders": {"B1": {"name": "Cog3 (natural protein, S. cerevisiae, UniProt P40094 1-801, looked up)", "chain": "MARSRKNSLVRDIASHPTIPESQTIVGLLDDSYLFDKLKKLSLAVENSDSLQRTDVSEGCSEVNGSEATTSADVKKTNKYLYYTTYLDQLNIKIDEYKVVLDQTRQVNDQLDSSIKKFRKISQDTGAFIEETKTIYEKQSKLSNLTESIPKALHYFEVLDPIMRRLNHATSPAIVKKSSFTTMLATIDESLRFLDENSDLKDAAAYRIKFKQCLIRACELISHFLTNLLKQTNQEILDKTKNKNSLTGLPSTTRDAFLYSKFYTIADTFKIQVSEIVKRSNEKAYNKYHDELNSILYECFNHYFQTRLRLLTPVIWSHIDEIVVKDKDQGLVKFIQDGKVYFQQLCADEYKLFVEFFPEKECRFKINQWFLQLCEPLYDSIRVRVLKETDICTLCDSVTLFAPYYEFEEGSEEYVKQFTDIQYDKLFEPIVQKVQARLILRVQIYVQQNILSYRPTRDVFMISNRRRKSKTSLQGGNEDATTSDDNPDPLLESYLSSFKNRSILPISPNDADDKSIDSEESTDKISQLQTYYPPLLKTLALLSKIYEMINSVVFDDLAHHVVHDCIVSLRNAYDMVIKSSAGKSDFNNLDISLAYLKNLLMLRDSIQNFNIQYTVNETYLDFSGVEGFFKSLKENGRNVLKKTKSSSILTLARELVPKVVNNMVDARTELISELRNVIKDFTESTSLELIDDTLDINSDEDLLSKNVKLRENIKARLPRIYEQILNYIDDQEIVTNLLDAVQELITQSYSKYYETITELAENGKFAKDQVADVMYLDVFTDFFAKEVADLLRNGDIDTITK"}, "B2": {"name": "Cog1 (natural protein, S. cerevisiae, UniProt P53079 1-417, looked up)", "chain": "MDEVLPLFRDSHIPQIKDYQLELQNDLTKTNEAFQKNLLKNYNKILSLTDSVNDLSLNLKNVDQDFKSLCFNDEKFQLNKLTPLPYQTTTHISPPRDEEKVSIPSQNILVISNWTISINNFCNRIVTSTTPSRIFDELLLNFHELSLIPVPSKFEALVKDKCCRLQKFLVDSMKTLNLTLLQWVKLYNLLNTEFSSKWDDDLLSIFNESLFETLFNDNVQALLISSANSKDHQYHSNQQYKDAIVVDFVNSSTFRDHLIRRTVKEINTHLDTLSTLRAKLKEPETLHKLDIFHDNDTNLNDGTVSPLDDDALKQYIDTAVFYSKGLTNDTTLQIYQTVQPTIEILQNLELYKCPQETLTDLRNKLITQLQEFKTQISSRLPSPLENSTSVVDDFITSYNNHNLLQLVIDQITQLRQQ"}, "B3": {"name": "Cog4 (natural protein, S. cerevisiae, UniProt Q06096 1-861, looked up)", "chain": "MEGQKSNASWESSIIEGQLSKNLARYTLLLDKLSTLSQIDKLSEVIANDYAKQSKQLNAFVQQSQSSLNKESRKLELQRTNLTTTLTQFHETVATISSSNARAKAIHDDIETVDQERALVNKTLQFVKDVRTLKNNISLAHSALETKDYLVAATAINEIRSLPDKKLIVSEFAKKVVPSSEIPEEPAILIKNWCKELTSLFQEQFMEATRTQDIKELTLMFKMFPMIGQDVLGLDLYSKYVCDIIADESRKIMSNSMENSTKFQGFFSQVLLHLFKIVSTIINDHSKVIATCYGKKHMVHVMEKVEKEADLQASLILDIFMETRKIERTIHDINEWEHSQKNEDVNIDSNQSDIETDGETEKSSIISIHDLALLIMEFSQILQNWSMYSRFYSVKWNEFSDLHPHVLQPPPPIADGKFALKLKQDKVFDEFQVFVLNHLQRSFRNSISLEELPSLNDLITAVPLNDHDNISYPVTSVLDDLILLVRKNLISVVNTGQFKLLASFLNELVKFFQNRFLVKFMQNKFKLLQSKLASNVSLKRYIPKGEEQSATSRSVSPPANKFSPLSRFTFRGAAASALTNIQSNLQAVVAEDEDSILALHHYLIYLNTLYLSKVYVHRLLSIEILEDDSQRILRDNFPFDNDAAQLQNLIINSEKLVLEQTDKLSKWAVKYLFQNILQNRVRNLLGTVFVNSASSNSSTSNQKNVSRDYSAGSNQKNYITSIEDFEDLSQINSFNSKWNQLIIPYKNILHNEAYAELLSVIVDYIVTTLEQRIWTLEFNELGVTKLDRELSLFIGNMCGLNYNLREKFLKLTQIVLLLGLDDDNFDLTTGDIKDDFNGTFDWVINSQERIKARNMKIDRTQ"}}, "key": {"[1]": {"target": "T1, Cog2 with an N-terminal 7×His tag (S. cerevisiae, UniProt P53271 1-262)", "T1 sequence (looked up)": "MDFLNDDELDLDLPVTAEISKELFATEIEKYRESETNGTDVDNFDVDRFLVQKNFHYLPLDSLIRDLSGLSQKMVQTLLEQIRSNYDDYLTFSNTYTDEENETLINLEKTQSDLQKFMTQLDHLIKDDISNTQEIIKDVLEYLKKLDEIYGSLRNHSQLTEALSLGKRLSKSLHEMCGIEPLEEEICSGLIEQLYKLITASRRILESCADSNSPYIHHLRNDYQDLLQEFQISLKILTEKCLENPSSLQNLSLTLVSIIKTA", "experiment": "negative-stain single-particle electron microscopy with GFP labelling"}, "Cog8": {"target": "T2, Cog8 (S. cerevisiae, UniProt Q04632 1-607)", "T2 sequence (looked up)": "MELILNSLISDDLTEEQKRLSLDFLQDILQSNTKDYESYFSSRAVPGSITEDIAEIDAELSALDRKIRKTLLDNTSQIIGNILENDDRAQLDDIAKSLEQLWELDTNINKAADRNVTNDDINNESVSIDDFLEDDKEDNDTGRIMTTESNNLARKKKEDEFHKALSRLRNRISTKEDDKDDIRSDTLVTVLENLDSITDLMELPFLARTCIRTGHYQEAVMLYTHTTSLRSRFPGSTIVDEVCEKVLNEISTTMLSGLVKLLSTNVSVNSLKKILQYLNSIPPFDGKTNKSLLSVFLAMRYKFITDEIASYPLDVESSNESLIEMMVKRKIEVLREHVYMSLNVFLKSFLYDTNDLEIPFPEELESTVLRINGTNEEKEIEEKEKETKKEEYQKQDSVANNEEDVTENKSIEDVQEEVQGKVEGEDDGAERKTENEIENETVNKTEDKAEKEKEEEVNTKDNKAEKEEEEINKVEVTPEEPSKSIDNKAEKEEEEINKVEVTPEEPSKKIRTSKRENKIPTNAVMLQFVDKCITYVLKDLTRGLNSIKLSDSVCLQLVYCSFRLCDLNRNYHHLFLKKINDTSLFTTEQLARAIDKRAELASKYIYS", "experiment": "negative-stain single-particle electron microscopy"}}, "data": [{"binder": "B1", "values": [{"measurement": "stoichiometry N", "setting": "[1]", "value": 1}]}, {"binder": "B2", "values": [{"measurement": "stoichiometry N", "setting": "[1]", "value": 1}, {"measurement": "binding result", "setting": "Cog8", "value": "binds"}]}, {"binder": "B3", "values": [{"measurement": "stoichiometry N", "setting": "[1]", "value": 1}]}]}
